Patent US20240270857A1 (CHIA TAI TIANQING PHARMACEUTICAL GROUP, published 2024)
Values belong to the binder of their own block, whether it stands above or below them.

How the values were obtained:
[1] = molecular target: T1, IL-36R naturally expressed on OVCAR8 cells and on normal human epidermal keratinocytes (NHK cells) (human, UniProt Q9HB29 20-575); assay: cell-based or functional assay
T1 sequence (looked up): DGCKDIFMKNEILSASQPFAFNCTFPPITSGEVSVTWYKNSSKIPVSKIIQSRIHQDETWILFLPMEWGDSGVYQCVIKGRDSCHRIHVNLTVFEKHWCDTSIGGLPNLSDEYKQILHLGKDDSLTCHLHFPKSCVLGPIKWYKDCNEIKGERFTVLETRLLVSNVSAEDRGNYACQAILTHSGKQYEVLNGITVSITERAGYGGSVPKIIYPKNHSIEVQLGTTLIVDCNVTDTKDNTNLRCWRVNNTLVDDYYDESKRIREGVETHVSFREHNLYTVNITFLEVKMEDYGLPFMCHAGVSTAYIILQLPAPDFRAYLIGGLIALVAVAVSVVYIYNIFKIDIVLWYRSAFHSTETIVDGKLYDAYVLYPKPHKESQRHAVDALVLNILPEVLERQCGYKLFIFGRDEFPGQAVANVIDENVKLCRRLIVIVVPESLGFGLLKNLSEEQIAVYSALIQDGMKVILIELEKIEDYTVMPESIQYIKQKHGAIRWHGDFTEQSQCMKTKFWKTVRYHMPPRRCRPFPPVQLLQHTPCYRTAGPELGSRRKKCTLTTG

[2] = molecular target: T2, human IL-36R overexpressed on 293T-hIL36R-NFκB cells (human, UniProt Q9HB29 20-575); assay: cell-based or functional assay
T2 sequence: T1 sequence (looked up)

[3] = molecular target: T1, IL-36R naturally expressed on OVCAR8 …; assay: cell-based or functional assay; remark: listed apart in the source
[4] = molecular target: T3, Human IL-1Rrp2/IL-1R6 protein, His Tag (ACROBiosystems, IL2-H52H6) (human, UniProt Q9HB29 20-335); assay: BLI (ForteBio Octet), antibody on ProA sensor, 1:1 model
T3 construct: Bought protein; the soluble protein is likely only the extracellular part; also called hIL-36R; human IL36R antigen; not shown: His tag
T3 sequence: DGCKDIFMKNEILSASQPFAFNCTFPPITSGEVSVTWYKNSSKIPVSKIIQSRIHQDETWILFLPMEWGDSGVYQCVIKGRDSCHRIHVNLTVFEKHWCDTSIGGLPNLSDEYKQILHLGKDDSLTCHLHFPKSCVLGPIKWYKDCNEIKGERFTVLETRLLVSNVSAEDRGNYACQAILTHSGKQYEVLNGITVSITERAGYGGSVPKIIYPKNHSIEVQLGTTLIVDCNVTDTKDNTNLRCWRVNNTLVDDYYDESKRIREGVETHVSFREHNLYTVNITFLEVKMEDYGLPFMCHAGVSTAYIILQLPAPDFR
Procedure: The affinity of anti-IL-36R antibodies to CynoIL36R-ECD mFc and human IL-1Rrp2/IL-IR6 protein, His Tag (ACROBiosystems, IL2-H52H6) was measured by a ForteBio molecular interaction instrument. […] And then the biosensor was used to bind CynoIL36R-ECD mFc or human IL-1Rrp2/IL-1R6 protein, His Tag which was diluted by a gradient (the initial concentration was 200 nM, 2-fold gradient dilution), the response signals were detected in real time using a Fortebio molecular interaction instrument (SARTORIUS, octet red 96e), and association and dissociation curves were obtained. After the completion of dissociation in each cycle, the biosensor was regenerated for the next capture; the procedure was repeated until the affinity of the different anti-IL-36R antibodies for IL-36R was determined. The resulting data were analyzed by Fortebio Data Analysis 11.0 software in a 1:1 (Langmuir) binding model to determine kₐ (kₒₙ) and kd (koff) values, and the dissociation constant KD was calculated by KD=kd/kₐ. The detection method essentially followed the manufacturer's recommendations, and more information could be found at www.fortebio.com.

[5] = molecular target: T1, IL-36R naturally expressed on OVCAR8 …; assay: cell-based or functional assay; remark: listed apart in the source
[6] = molecular target: T1, IL-36R naturally expressed on OVCAR8 …; assay: cell-based or functional assay; remark: listed apart in the source
[7] = molecular target: T1, IL-36R naturally expressed on OVCAR8 …; assay: cell-based or functional assay; remark: listed apart in the source
[8] = molecular target: T4, cynomolgus IL-36R overexpressed on 293T-CynoIL36R-NFκB cells (cynomolgus monkey); assay: FACS on 293T-CynoIL36R-NFκB cells, ratio of MFI to background MFI
T4 construct: Entry includes the signal peptide; also called monkey IL-36R
T4 chain: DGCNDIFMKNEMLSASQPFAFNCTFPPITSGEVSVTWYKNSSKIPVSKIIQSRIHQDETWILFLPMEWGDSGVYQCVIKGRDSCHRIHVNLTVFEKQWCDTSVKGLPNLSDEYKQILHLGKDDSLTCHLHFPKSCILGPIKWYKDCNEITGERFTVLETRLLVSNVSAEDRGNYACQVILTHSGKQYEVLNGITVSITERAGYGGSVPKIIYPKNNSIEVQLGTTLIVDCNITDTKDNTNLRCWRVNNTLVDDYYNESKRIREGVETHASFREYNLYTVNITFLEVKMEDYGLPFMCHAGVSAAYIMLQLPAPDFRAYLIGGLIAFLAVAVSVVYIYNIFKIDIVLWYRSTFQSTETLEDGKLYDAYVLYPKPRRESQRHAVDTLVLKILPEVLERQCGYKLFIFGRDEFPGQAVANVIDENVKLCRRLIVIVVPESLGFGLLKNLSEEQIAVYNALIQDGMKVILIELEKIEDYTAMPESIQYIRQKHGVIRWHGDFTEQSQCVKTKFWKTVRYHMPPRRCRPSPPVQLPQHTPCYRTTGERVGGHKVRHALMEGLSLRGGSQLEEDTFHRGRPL
Procedure: After the cells was washed with PBS, the cells were resuspended with 100 μL of PBS and then the fluorescence signal was detected using a flow cytometer (BD, Accuri C6). […] The ratio was the ratio of mean fluorescence intensity (MFI) of the experimental group/the background MFI, and the resulting data were analyzed using GraphPad Prism.

[9] = molecular target: T2, human IL-36R overexpressed on …; assay: cell-based or functional assay; remark: listed apart in the source
[10] = molecular target: T2, human IL-36R overexpressed on …; assay: cell-based or functional assay; remark: listed apart in the source
[11] = molecular target: T1, IL-36R naturally expressed on OVCAR8 …; assay: cell-based or functional assay; remark: listed apart in the source
[12] = molecular target: T5, hIL36R-ECD hFc recombinant protein (human); assay: ELISA of hybridoma culture supernatant on hIL-36R
T5 construct: also called hIL-36R extracellular region with human antibody heavy chain Fc
T5 sequence (chain, as listed by the source limits assumed): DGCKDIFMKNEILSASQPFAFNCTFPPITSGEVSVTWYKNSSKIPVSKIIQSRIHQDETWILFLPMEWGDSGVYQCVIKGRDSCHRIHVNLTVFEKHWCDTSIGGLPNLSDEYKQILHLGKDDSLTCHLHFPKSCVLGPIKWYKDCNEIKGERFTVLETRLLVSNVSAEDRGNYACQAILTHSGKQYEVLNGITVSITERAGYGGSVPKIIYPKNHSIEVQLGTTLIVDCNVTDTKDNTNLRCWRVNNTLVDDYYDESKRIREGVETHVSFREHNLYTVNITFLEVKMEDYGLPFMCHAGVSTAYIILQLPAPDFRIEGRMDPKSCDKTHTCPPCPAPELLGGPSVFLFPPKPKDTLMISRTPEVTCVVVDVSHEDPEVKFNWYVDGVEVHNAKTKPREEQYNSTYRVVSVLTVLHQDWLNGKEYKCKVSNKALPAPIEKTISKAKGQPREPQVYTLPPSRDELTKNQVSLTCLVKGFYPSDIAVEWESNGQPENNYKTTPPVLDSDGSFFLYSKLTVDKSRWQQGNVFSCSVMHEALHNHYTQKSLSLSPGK

B2: mouse antibody 58A8D1 (hybridoma clone 58A8D1) (antibody, V domains shown)
VH: EVQLQQLGSVLVRPGISVKLSCKASGYSFTSSWMHWTKQRPGQGLEWIGEIHPNSGNTNYNEKFKGKATLTVDTSSRTAYVDLSSLTSEDSAVYYCARSPYGYGGSMDYWGQGTSVTVSS
VL: DIQMTQTTSSLSASLGDRVTISCRASQDIHNYLNWYQQKPDGTVKLLIYYTSRLYSGVPSRFSGSGSGTDYSLTISNLEQEDFATYFCQQGNTLPVMFGSGTKLELK
notes: Mouse hybridoma antibody tested as culture supernatant
binding result [12]: binds

B3: mouse antibody 72C1 (hybridoma clone 72C1) (antibody, V domains shown)
VH: EVQLQQSGPSLVKPSQTLSLTCSVTGASITSGYWNWIRNFPGNKLEYMGYISYSGYTYYNPSLKSRISITRDTSKNQYYLQLISVTTEDTATYYCATGGYDYVEDALYYWGQGTSVTVSS
VL: EILLTQSPAIMSATLGEKVTMSCRASSNVRYMYWYQLKSGASPKLWIYLTSNLASGVPARFSGSGSGTSYSLTISSVEAEDAATYFCQQFTTSPYTFGGGTKLEIK
notes: as for B2
binding result [12]: binds

B4: mouse antibody 84C4 (hybridoma clone 84C4) (antibody, V domains shown)
VH: EVQLQQLGAELVRPGASVMLSCKVSGYFFTSYWMNWVNQRPGQGLEWIGMIHPYDSETRLNQKFKGKATLTVDKSASTAYLQLSSPTSEEYAVYYCASSTTAFAYWGQGTLVTVSA
VL: DILMTQSPSSLSASLGERVSLTCRASQDIGNALNWLQQAPDGTIKRLIYATSSLDPGVPKRFSGSRSGSDYSLTISSLASEDFVYYYCLQYASSPYTFGGGTKLEIK
notes: as for B2
binding result [12]: binds

Further lines, results first:

IC50; IL-8 production of OVCAR8 cells stimulated with hIL36β, inhibition rate % [1]: 415 pM
IC50; NFκB-luciferase reporter in 293T-hIL36R-NFκB cells stimulated with hIL36γ, inhibition rate % [2]: ~40.8 nM
IC50; IL-8 production of OVCAR8 cells stimulated with hIL36α, inhibition rate % [3]: 253 pM
Kd [4]: 0.254 nM
koff [4]: 9.15e-06 s⁻¹
kon [4]: 36000 M⁻¹ s⁻¹
IC50; IL-8 production of OVCAR8 cells stimulated with hIL36γ, inhibition rate % [5]: 213 pM
IC50; IL-8 production of NHK cells stimulated with hIL36α, inhibition rate % [6]: 69.3 pM
IC50; IL-8 production of NHK cells stimulated with hIL36β, inhibition rate % [7]: 79.1 pM
EC50 [8]: 20.8 nM
IC50; NFκB-luciferase reporter in 293T-hIL36R-NFκB cells stimulated with hIL36β, inhibition rate % [9]: 9.77 nM
IC50; NFκB-luciferase reporter in 293T-hIL36R-NFκB cells stimulated with hIL36α, inhibition rate % [10]: 16.4 nM
IC50; IL-8 production of NHK cells stimulated with hIL36γ, inhibition rate % [11]: 13.6 pM
B1: chimeric 58A8D1 antibody (antibody, human IgG4 S228P, kappa, V domains shown)
VH: B2 VH
VL: DIQMTQTTSSLSASLGDRVTISCRASQDIHNYLNWYQQKPDGTVKLLIYYTSRLYSGVPSRFSGSGSGTDYSLTISNLEQEDFATYFCQQGNTLPVMFGSGTKLELKR
notes: Mouse variable regions on human IgG4 / kappa; also called xi58A8D1

IC50; IL-8 production of OVCAR8 cells stimulated with hIL36β, inhibition rate % [1]: 182 pM
IC50; NFκB-luciferase reporter in 293T-hIL36R-NFκB cells stimulated with hIL36γ, inhibition rate % [2]: ~40.2 nM
IC50; IL-8 production of OVCAR8 cells stimulated with hIL36α, inhibition rate % [3]: 70.4 pM
Kd [4]: 0.881 nM
koff [4]: 5.01e-05 s⁻¹
kon [4]: 56900 M⁻¹ s⁻¹
IC50; IL-8 production of OVCAR8 cells stimulated with hIL36γ, inhibition rate % [5]: 72.7 pM
IC50; IL-8 production of NHK cells stimulated with hIL36α, inhibition rate % [6]: 555 pM
IC50; IL-8 production of NHK cells stimulated with hIL36β, inhibition rate % [7]: 1270 pM
EC50 [8]: 3.49 nM
IC50; NFκB-luciferase reporter in 293T-hIL36R-NFκB cells stimulated with hIL36β, inhibition rate % [9]: 1.8 nM
IC50; NFκB-luciferase reporter in 293T-hIL36R-NFκB cells stimulated with hIL36α, inhibition rate % [10]: 2.77 nM
IC50; IL-8 production of NHK cells stimulated with hIL36γ, inhibition rate % [11]: 130 pM
B5: chimeric 6G10 antibody (antibody, human IgG4 S228P, kappa, V domains shown)
VH: EVMLVESGGGLVKPGGSLKLSCAASGITFSRFAMSWIRQTPEKRLEWVATISSGDMYTYYPDSVKGRFTISRDNANNTLYLQMRSLRSEDTAMYYCAIMITTGEHAYWGQGTLVTVSA
VL: EIKMTQSPSSLSASLGDTITITCRASQDISVWLTWYQQKPGNIPKLLIYKASNLHTGVPPRFSGSGSGTDFTFTISSLQPEDITTYYCLQSQSYPWTFGGGTKLEIKR
notes: Mouse variable regions on human IgG4 / kappa; also called xi6G10

binding result [12]: binds
B6: mouse antibody 6G10 (hybridoma clone 6G10) (antibody, V domains shown)
VH: B5 VH
VL: EIKMTQSPSSLSASLGDTITITCRASQDISVWLTWYQQKPGNIPKLLIYKASNLHTGVPPRFSGSGSGTDFTFTISSLQPEDITTYYCLQSQSYPWTFGGGTKLEIK
notes: as for B2

binding result [12]: binds
B7: mouse antibody 74B4D6 (hybridoma clone 74B4D6) (antibody, V domains shown)
VH: EVQLQQPGAELGKPGASVKMACKASGYTFTNYWIHWVKQRPGQGLEWIGTIDPSENYTNYNQKFKGKATLTVDTSSSTAYMQLSSLTSEDKAVYFCTGSSFSYWGQGTLVTVSA
VL: QNVLTQSPAIMSVSPGEKVTMTCSASSSVSFIHWFQQKPGTSPKLWIYTTSNLASGVPARFSGSGSGTSYSLTISRMEAEDAATYYCQQRSSYPLTFGAGTKLELK
notes: as for B2
